From patent US9932621B2, “Modulators for Sirt5 and assays for screening same” (CORNELL UNIVERSITY, priority 2010, dated 2018) come the findings set out here.

“Also recorded” adds a separate entry of the source. *1 amine or outer side, *2 acyl side, *3 side chain or, on linkers, in order; H or OH if unused. Where no end group is shown, it is not given here. The star is where a group is joined. Malonyl = O=C(CC(=O)[*:2])[*:1]; AMC = Cc1cc(=O)oc2cc(N*)ccc12; Suc = O=C(CCC(=O)[*:2])[*:1]

The target of one data set is T1, Sirt2 (Homo sapiens, UniProt Q8IXJ6).
T1 construct: made in house
T1 sequence (Q8IXJ6 1-389): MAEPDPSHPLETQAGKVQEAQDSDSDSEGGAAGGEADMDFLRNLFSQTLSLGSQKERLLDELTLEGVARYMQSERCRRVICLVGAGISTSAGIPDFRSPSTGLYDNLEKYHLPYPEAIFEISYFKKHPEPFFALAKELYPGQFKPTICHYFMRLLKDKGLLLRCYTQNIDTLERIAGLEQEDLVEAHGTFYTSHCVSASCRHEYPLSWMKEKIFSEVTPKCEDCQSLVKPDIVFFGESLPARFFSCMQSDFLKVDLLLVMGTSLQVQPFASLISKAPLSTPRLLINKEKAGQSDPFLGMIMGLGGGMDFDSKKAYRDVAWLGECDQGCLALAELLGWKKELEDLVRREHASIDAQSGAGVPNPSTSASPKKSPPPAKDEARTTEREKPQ
The data set can be described thus: Secondary screening using Sirt2 and ISGASE(AcK)-AMC fluorogenic assay. The format is biochemical. The conditions noted are these: inhibitor 30 μM, ISGASE(AcK)-AMC 0.3 mM, Sirt2 1 μM, FIG. 15. The procedure:
SirT2 (1 μM) was incubated with ISGASE(AcK)-AMC (SEQ ID NO:13) peptide (0.3 mM), inhibitors (30 μM), NAD (0.5 mM) in Tris-HCl buffer (pH 7.4, 20 mM) containing dithiothreitol (DTT, 1 mM) in a 60 μL reaction for 4 hours at 37° C. Then trypsin (1 μg) and CaCl2 (1 mM) were added and the reaction were incubated for 3 hours at 37° C. The reactions were diluted with 50 μL water. The mixture (100 μL) was transferred to 96 well plate and the fluorescence was recorded by BIO-TEK® Synergy HT (Optics Position: Top, Sensitivity: 50, Excitation at the wavelength of 360 nm and Emission at the wavelength of 460 nm).

Data set [1] concerns the target T2, Sirt5 (Homo sapiens, UniProt Q9NXA8).
T2 construct: made in house
T2 sequence (Q9NXA8 37-310): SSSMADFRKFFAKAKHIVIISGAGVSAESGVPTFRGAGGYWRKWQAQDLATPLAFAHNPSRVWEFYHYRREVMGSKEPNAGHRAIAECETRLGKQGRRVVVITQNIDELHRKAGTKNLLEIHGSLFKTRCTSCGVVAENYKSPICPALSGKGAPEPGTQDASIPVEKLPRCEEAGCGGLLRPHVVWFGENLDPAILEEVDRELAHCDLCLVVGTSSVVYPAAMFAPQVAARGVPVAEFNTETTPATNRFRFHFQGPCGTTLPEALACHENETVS
Nature of the data set: Screening for Sirt5 inhibitors with ISGASE(SuK)-AMC in the fluorogenic assay. The format is biochemical. The conditions noted are these: compound 30 μM, ISGASE(SuK)-AMC 0.3 mM, Sirt5 1 μM, FIG. 13. The procedure:
SirT5 (1 μM) was incubated with ISGASE(SuK)-AMC (SEQ ID NO:11) peptide (0.3 mM), NAD (0.5 mM) in Tris-HCl buffer (pH 7.4, 20 mM) with DTT (1 mM) in 60 μL reactions for 4 hours at 37° C. Then trypsin (1 μg) and CaCl2 (1 mM) were added and the reactions were incubated for 3 hours at 37° C. The reactions were the diluted with 50 μL water. The mixture (100 μL) was transferred to 96 well plate and the fluorescence was recorded by BIO-TEK® Synergy HT plate reader (Optics Position: Top, Sensitivity: 50, Excitation at the wavelength of 360 nm and Emission at the wavelength of 460 nm).
The procedure was the same as described above (Assaying Sirt5 activity on ISGASE(SuK)-AMC in the fluorogenic assay), except that different compounds (30 μM) were included in the reactions. In the desuccinylation step, Sirt5 was added last to initiate the desuccinylation reaction.

Data set [2] deals with T2, Sirt5. Nature of the data set: Sirt5 deacetylation, demalonylation, desuccinylation kinetics on WW-tagged peptides by HPLC. The conditions noted are these: peptides with two C-terminal tryptophan residues; for Km: read-out: Peptide Km. The format is biochemical. The protocol:
(§1) For determination of kcat and Km, human Sirt1, Sirt2, Sirt3 and Sirt5 were measured by detecting the deacylated peptide from H3K9 acyl peptides using HPLC. Purified Sirtuin was incubated with 1.0 mM of NAD in 20 mM Tris-HCl buffer (pH 7.5) containing acyl peptides (0-750 μM) and 1 mM DTT in 60 μL reactions at 37° C. The reactions were stopped with 100 mM HCl and 160 mM acetic acid, analyzed by HPLC with a reverse phase C18 column (250×4.6 mm, 90 A, 10 μm, GraceVydac, Southborough, Mass.), with a linear gradient of 0% to 20% B for 10 min (1 mL/min). […] The kcat and Km values were obtained by curve-fitting the Vinitial/[E] versus [S] plot using KaleidaGraph. For Sirt5 R105M, the observed second order rate constant, kobs (rate/([Sirtuin][NAD])) was detected instead of kcat and Km because of the very weak deacylation activity. The experiments were done in duplicate.
(§2) For comparing the deacetylation, demalonylation and desuccinylation activities of Sirt5 on different peptide backbones (results shown in Table 2), histone H3, GDH and ACS2 peptides with two tryptophan residues at the C-terminal were used to allow better detection and quantification on HPLC. The determination of kcat and Km was carried out essentially the same as mentioned above with slight modifications. The reactions were quenched with 60 μL 10% TFA. The chromatography gradient was 0% to 50% B for 20 min (1 mL/min). The peptides were detected and quantified on the LC by the absorption at 280 nm.

Data set [3] has as its target T2, Sirt5. The data set can be described thus: Sirt5-catalyzed desuccinylation of AMC-succinyl peptides monitored by HPLC. The format is biochemical. The conditions noted are these: 2 hrs. The protocol: […] The reactions were stopped with 200 mM HCl and 320 mM acetic acid, analyzed by HPLC with a reverse phase C18 column (250×4.6 mm, 90 A, 10 μm, GraceVydac, Southborough, Mass.), with a linear gradient of 0% to 20% B for 10 min (1 mL/min).

Substrate in data set [4]: C[C@H](NC(=O)[C@@H](NC(=O)[C@H](CCC(N)=O)NC(=O)[C@@H](N)CCCCN)[C@@H](C)O)C(=O)N[C@@H](CCCNC(=N)N)C(=O)N[C@@H](CCCCNC(=O)CC(=O)O)C(=O)N[C@@H](CO)C(=O)N[C@H](C(=O)NCC(=O)NCC(=O)N[C@@H](Cc1c[nH]c2ccccc12)C(=O)N[C@@H](Cc1c[nH]c2ccccc12)C(=O)O)[C@@H](C)O
Nature of the data set: Sirt5 deacetylation, demalonylation, desuccinylation kinetics on WW-tagged peptides by HPLC. The format is biochemical, human. To be noted: other: Sirt5, peptides with two C-terminal tryptophan residues, pH 7.5. The procedure:
as §1, §2

Substrate in data set [5]: C[C@H](NC(=O)[C@@H](NC(=O)[C@H](CCC(N)=O)NC(=O)[C@@H](N)CCCCN)[C@@H](C)O)C(=O)N[C@@H](CCCNC(=N)N)C(=O)N[C@@H](CCCCNC(=O)CCC(=O)O)C(=O)N[C@@H](CO)C(=O)N[C@H](C(=O)NCC(=O)NCC(=O)N[C@@H](Cc1c[nH]c2ccccc12)C(=O)N[C@@H](Cc1c[nH]c2ccccc12)C(=O)O)[C@@H](C)O
The description is as above. The format is biochemical, human. To be noted: other: Sirt5, peptides with two C-terminal tryptophan residues, pH 7.5. The procedure: as §1, §2

Take `Cc1ccc(C(=O)Nc2ccc(S(=O)(=O)O)c3cc(S(=O)(=O)O)cc(S(=O)(=O)O)c23)cc1NC(=O)c1cccc(NC(=O)Nc2cccc(C(=O)Nc3cc(C(=O)Nc4ccc(S(=O)(=O)O)c5cc(S(=O)(=O)O)cc(S(=O)(=O)O)c45)ccc3C)c2)c1` [suramin]: the “fluorescence produced by Sirt2 in fluorogenic assay” value on Sirt2 is “decreased the fluorescence to almost background level”. Besides, the “inhibition of Sirt5 (fluorescence) in fluorogenic assay” value at Sirt5 [1] is listed as “close to background level; also recorded: significant inhibition”.

With “GDH K503 (498-509 + WW) acetyl peptide: GDH K503 acetyl peptide (498-509) with two C-terminal tryptophan residues (SGASEK(Ac)DIVHSGWW)”, the Km (usually the substrate concentration at which the rate is half of its maximum) with Sirt5 [2] is greater than 750 µM.

In the case of “GDH K503 (498-509 + WW) malonyl peptide: GDH K503 malonyl peptide (498-509) with two C-terminal tryptophan residues (SGASEK(Malonyl)DIVHSGWW)”, in the data set with Sirt5 [2], the kcat (as a rule, the maximal rate divided by the concentration of active sites) turned out to be 0.014 ± 0.001 s⁻¹ and the Km came to 8.7 ± 1.3 µM.

As to “GDH K503 (498-509 + WW) succinyl peptide: GDH K503 succinyl peptide (498-509) with two C-terminal tryptophan residues (SGASEK(Suc)DIVHSGWW)”, in the data set with Sirt5 [2], the kcat was found to be 0.028 ± 0.002 s⁻¹ and the Km was found to be 14 ± 4 µM.

As to ISGASE(SuK)-AMC (ISGASEK(Suc)-{AMC}), the succinyl peptide desuccinylated is listed as 7.3% with Sirt5 [3] (1 μM Sirt5, 300 μM peptide); 17% with Sirt5 [3] (2 μM Sirt5, 300 μM peptide); 36% with Sirt5 [3] (5 μM Sirt5, 300 μM peptide).

“KQTARK(Ac)STGGWW [H3 K9 (4-13 + WW) acetyl peptide]”: on Sirt5 [2], the Km was greater than 750 µM.

B1: Sirt5 (Homo sapiens) (protein)
chain: T2 sequence (Q9NXA8 37-310)
notes: made in house
For B1, in data set [4], the Km was 6.1 ± 2.8 µM; the kcat worked out at 0.037 ± 0.003 s⁻¹; the kcat/Km (in general, the second-order rate constant that governs catalysis at low substrate concentration) was determined as 6100 M⁻¹ s⁻¹. For the same molecule, in data set [5], the Michaelis constant (Km) came to 5.8 ± 2.7 µM, the kcat was 0.025 ± 0.002 s⁻¹ and the kcat/Km turned out to be 4300 M⁻¹ s⁻¹.
